± gives the uncertainty stated by the source.

This data set is described as follows: amyloid nucleation score (Sup35N fusion, yeast selection) (log enrichment); library NNK3; higher = more nucleation; inactive = no reads after selection. In a few lines: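 Nucleation score: DiMSum log enrichment of output over input reads, centred on the mode score of non-aggregating sequences. Only sequences with at least 100 input reads were kept. Reads came from Illumina sequencing of plasmid inserts before and after 7 days of growth at 30°C without adenine and uracil, in psi-negative yeast expressing Sup35N fused to peptides of 20 random codons after 24 hours of induction with 100 μM copper sulfate.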
Take LTDDSCCPRR: the amyloid nucleation score entry was “inactive”.
The value for DRLHSCYCCTIVHRFYRNYD was “inactive”; that for MYTQCLVYSR was “inactive”; that for IYTVWMAKGVTPVQKGPSRY was “inactive”.
YMVWMLNQDRSACGINIMSI yielded an amyloid nucleation score of 1.33 ± 0.12.
The entry for NFRFPTNGNYGNYLKKESFV is “inactive”; for YLYCRAWIWLDNSMLSWS it is “inactive”.
As to YILIL, the amyloid nucleation score result is “inactive”.
For the substance DIVYQARCA, the amyloid nucleation score entry was “inactive”.
The entry for VFLILFVLPLFYLNDSPGCA is “inactive”.
PMYTMRVWLMMSS: the amyloid nucleation score result is “inactive”.
The entry for GSLKPMFDRSCFFNIKAIML is “inactive”.
In the case of YYIHCVWYNADKVYEG, the amyloid nucleation score is 2.37 ± 0.059.
As for SWTCRFCHMSFIGML, the amyloid nucleation score was found to be 0.251 ± 0.43.
The figure for IAHWAWGMELIIYQIPNHFR is 0.407 ± 0.25.
Turning to PTIHGVMGVEPMSYSLL, the amyloid nucleation score result is “inactive”.
For NSGAA, the amyloid nucleation score entry was “inactive”.
Turning to GMAWLVGWLGLRLLTYFGYR, the amyloid nucleation score result was “inactive”.
The entry for NWDMAFNYNLTAFSPKGTNS is “inactive”.
On to LAWCVLSKPRDRYSGVTSTL, for which the amyloid nucleation score entry is “inactive”.
The value for GAYSDMTNKIWVPDNLLLL was “inactive”.
The value for SLIDHYLSDLSKKS was “inactive”; that for ARVRFSLKRSCMLVHA was “inactive”.
The value for TFVVSVMHKCAW was 1.18 ± 0.11; that for PNLYIMYGAFKIVLHSPDWG was “inactive”; that for FVSRGKLLPNAPGFMWFLLR was -0.533 ± 1.9.
In the case of WNLYCAFSPDYRLNIWTLQI, the amyloid nucleation score entry was “inactive”.
The value for TIMCNIWLGFRT was 2.01 ± 0.096.
YTAKYGGFISLYR came in with an amyloid nucleation score of 0.691 ± 0.15.
PRSVVMYNNFINWYKTHKYY registered an amyloid nucleation score of 1.62 ± 0.067.
On to EAVSCWSRKNMVRYGNGDRA, for which the amyloid nucleation score entry was “inactive”.
The value for NRKRFGEMNGRNYSVQGGRW was “inactive”; that for RSLTLW was “inactive”; that for VDETPSSHMSIPVMERVLCG was “inactive”.
For the substance LFGEGKFKYWMSVKKFGSGI, the amyloid nucleation score entry is “inactive”.
The entry for TDILLYMIFVLHVVSNGVLG is “inactive”; for YKRRKTVNWHQDCTAIFGGN it is “inactive”.
The value for WFASNPIMLPSFYLIPWKRT was “inactive”; that for SQWIIGFTVTCFSSCKILKM was “inactive”.
The value for HDTPFMCV was “inactive”; that for WLWISMVYCHLKDIRIIVGN was “inactive”; that for TTTFKLGISKSLDVSTRLRG was 0.31 ± 0.14.
As to FLIPYKRQIAQRRYVSLE, the amyloid nucleation score entry was “inactive”.
The entry for KDKQVV is “inactive”; for CMVFMYQILVPAWALRSYIL it is “inactive”; for HNKAETTPLSHCMQSSSKLL it is “inactive”.
CIFFWSALARLFFGLFNYPC: the amyloid nucleation score entry is “inactive”.
The value for ARHVLAGCKRMLYHFEGRVG was -0.643 ± 1.3; that for RVEIRIIS was “inactive”.
Take IWPNRHGLKNVLRDQREATL: the amyloid nucleation score result is “inactive”.
PLWTPDGPLIGVVFVLSNNV had an amyloid nucleation score of 1.03 ± 0.15.
The entry for SAGAQSHSIYRAAVLSACLY is “inactive”; for MFSYSNSHFSLRLMWRGLRF it is “inactive”; for DAKKNLLVGVFCHYRSSQER it is “inactive”.
The value for NCMFWGCVTLRADFVRTINR was 1.5 ± 0.14; that for ICSII was “inactive”; that for LDVVRRMLKTH was “inactive”.
The entry for EDNRTTVVFTGEC is “inactive”.
IYPFSDMLSFWGMGKCELLR came in with an amyloid nucleation score of -0.361 ± 1.1.
The value for CMFFLLPIIAYSV was “inactive”; that for MWAGCGVSGPALGHAGSARR was “inactive”; that for YFKYTN was 1.32 ± 0.15.
Take VAETYLRTA: the amyloid nucleation score entry is “inactive”.
The value for WETLLKPWQA was “inactive”; that for ENTAYWDLSGRLANQLGWRL was “inactive”.
As for WLMRARGYGNVRSPVVFGKL, the amyloid nucleation score result is “inactive”.
SLEVLIYDGKCMSCDDVVNG: the amyloid nucleation score entry is “inactive”.
Regarding GSFSMKDTVEVYLTPVWFSR, the amyloid nucleation score result is “inactive”.
For SMNPIECYNAHLVSSGFWVQ, the amyloid nucleation score result is “inactive”.
The entry for NHMCSVYRWQSLERVVCKGI is “inactive”; for LLFMYSDMTYTWCIFYGELW it is “inactive”; for CLRRTLEPW it is “inactive”.
The entry for RNSIMSSDWSHSGYGS is “inactive”; for HFLFRVRRGTWK it is 0.396 ± 0.34; for YCKFDS it is 0.705 ± 0.12.
Take EFLQWFDFLQMMAPSLRSAN: the amyloid nucleation score result is “inactive”.
The value for GISSKRMFLSLSAFERSVYI was “inactive”; that for YSMFN was “inactive”; that for YFGDPSSRMKCFYPYVSVCR was “inactive”.
The entry for AFLACLRLKDLDVVFRSPNR is “inactive”.
The entry for LRMHWDTYERSVDTIASVVH is “inactive”; for REKLDQP it is “inactive”.
For HPIANVV, the amyloid nucleation score entry was “inactive”.
The value for WNNYI was “inactive”; that for YYVVVQADVGNI was “inactive”.
The entry for CWLSWYFATKLGAYWELSNG is “inactive”; for WSMCKLKDFFTGRGVYRFIS it is “inactive”.
The value for PVRSR was “inactive”.
For FFRSCWCFVLLLNDCMITSL, the amyloid nucleation score result was “inactive”.
The entry for MLTFLVYSCGTGWVCPLLRK is “inactive”; for VLVVLDVRRGTDLCTF it is “inactive”.
The figure for SLAKFNMNYGTYGLEGFSVW is -0.209 ± 0.81; for QYSYSPGCRYLKVMLSNNSE it is “inactive”; for ATQLCCIVCRGLGPGMGEES it is “inactive”.
KVSYSQTPISGRTDTPVPDR: the amyloid nucleation score amounted to 0.294 ± 0.2.
In the case of MKLVDLGVEIRLRRLAVSSV, the amyloid nucleation score entry is “inactive”.
The entry for MFNILADKGSRARSERASL is “inactive”; for LEHCLCGLKYPDE it is “inactive”.
The figure for ILVSFVVGTNLLWGDASVRW is 0.236 ± 0.48; for LIEWYFDN it is “inactive”; for SVSVLV it is “inactive”.
The entry for SSFGFKAK is “inactive”.
Turning to GPIEPFSMLSM, the amyloid nucleation score is -0.291 ± 0.7.
The figure for VLLSRMIYALPGYSVL is 1.93 ± 0.075.
The entry for MRLVICTAHWQSFYRFYIIL is “inactive”; for YVFVCIRPPLVGVHEFNSRS it is -0.089 ± 0.56.
Take MVHAVPHMVDGGS: the amyloid nucleation score result is “inactive”.
The entry for RDHMSS is “inactive”; for GCNYTVSTYILRVSDFTYYM it is -0.585 ± 0.76; for ILRYLSIVPRNFYRCYGHFG it is “inactive”.
The value for PVHGSKGPSGHVCRQCGFLM was “inactive”; that for MWVPTRHKGLYFVNVVFACH was “inactive”.
As to GKYSYLDIPTTIVYMFIH, the amyloid nucleation score was 1.44 ± 0.14.
The value for LVLPVSFRVCFREVIIHMKY was “inactive”.
As to AQGKSRPYPLSNSPSGVRRS, the amyloid nucleation score entry was “inactive”.
The entry for KGYCFAYRQNSVELIP is “inactive”; for HLSPVNSK it is “inactive”.
The value for VMRGASYFPTELADDDLMPG was “inactive”; that for RHSFMRFRLSNWV was “inactive”.
The entry for SFGIGSI is “inactive”.
In turn, CFLYYRM gave an amyloid nucleation score of 1.17 ± 0.11.
The entry for THDAVNFVLRHWAITGNTDM is “inactive”.
The value for NRLWSYMGTVLFNPFWLVWR was “inactive”; that for TVLCAC was “inactive”; that for YYFRPVSPRDLSQVDCRTDL was “inactive”.
The entry for CIPPCW is “inactive”; for GYGHVIYLYYCQRHDNPQVQ it is “inactive”; for ECVCCRYYLVCGGPILRQDL it is “inactive”.
Take YYHLGLLDVSINEIRT: the amyloid nucleation score entry is “inactive”.
On to CRYSLWSFSQMGEWMPRCER, for which the amyloid nucleation score result was “inactive”.
The entry for VFVTRYKTKTPCLMTVRKEL is “inactive”.
As to IRTSGSMYIISIWRWVGRTL, the amyloid nucleation score result was “inactive”.

(Values after the supplement of paper PMC12042874.)
